# Results from the supplement of paper PMC7125110.
# ± gives the standard error. Variants at the floor of the assay were thinned out.
# B1: glmS ribozyme (parent)
# chain: AUAAAAGCGCCAGAACUACAGAAAUGUAGUUGACGAGGAGGAGGUUUAUCGAAUUUUCGGCGGAUGCCUCCAAA
# Variants of: B1
# Experiment: self-cleavage kobs at 2500 uM GlcN6P; higher = faster cleavage; RNA array
# Details: with glucosamine-6-phosphate
# How it was run: (§1)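 A hybridised Cy3 probe tracked barcoded ribozyme variants, transcribed in situ by E. coli RNA polymerase on sequenced MiSeq chips, at 37 °C. The variants received 40 μM to 10 mM glucosamine-6-phosphate in HEPES/KCl/Mg(OAc)2 buffer. kobs came from decay fits and kcat and KM from weighted Michaelis–Menten fits.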
row,Variant,self-cleavage kobs at 2500 uM GlcN6P [s⁻¹]
1,G9C G38C C67U,< 1e-05
2,G9U G29A A33U,< 1e-05
3,G9A C16G A33C G51U U54A C58U,< 1e-05
4,C8U G60U C61G C70G,< 1e-05
5,C11G A15G A39C G40A,< 1e-05
6,G7A G41C C67U,< 1e-05
7,C11G A12G G29A U31G G43U U49A G51U U54C C61U,< 1e-05
8,C11A A33C A53C A64C,< 1e-05
9,C11U G29A C70A,0.000404 ± 0.00014
10,C10U C11A A12G G41C,< 1e-05
11,G7C A15C G32U C58U C61U,< 1e-05
12,G7C U30A G44A,< 1e-05
13,C11U C50A G51U C61A,9.9e-05 ± 3.3e-05
14,G7U C11G C16G G32A A53U,< 1e-05
15,C11U G60U C68A,< 1e-05
16,C10U A53G C61A C67G,8.38e-05 ± 4.1e-05
17,C8U G13A G51A,< 1e-05
18,G7U G32C U54A,< 1e-05
19,C11U A15C G41U G60U,< 1e-05
20,C8A G32C C34G A42U C61A,< 1e-05
21,A12G A39G C67A,0.000177 ± 3.7e-05
22,A12G A14C A33U C34G G38U,< 1e-05
23,C8U A39U A64U,< 1e-05
24,C8A G32A A33U U55A,< 1e-05
25,C10U C67G C68U,0.000126 ± 4.8e-05
26,C8U A48U G60C,< 1e-05
27,A12C C16U C50U,3.9e-05 ± 1.5e-05

row,Variant,self-cleavage kobs at 2500 uM GlcN6P [s⁻¹]
1,C8U A15G G43A,< 1e-05
2,C11A U30G G43C C68G C71U,0.000269 ± 9.8e-05
3,C8U A15C C71G,< 1e-05
4,C10U C16A U45C,< 1e-05
5,G9A A15G C34G U55C C71G,< 1e-05
6,G7C A48U A64U C67U,< 1e-05
7,C10G C11A U30C A36C G37U C70A C71U,8.35e-05 ± 3.8e-05
8,A12C A52C,< 1e-05
9,C10U A33G G35U U47A G59C,< 1e-05
10,A12C A36C C71A,< 1e-05
11,C8G G29U U69G,< 1e-05
12,A12G G38C U45A C67A,< 1e-05
13,C8U G9U G63U,< 1e-05
14,C8A U31C G38A A64C,< 1e-05
15,C10G A12C G44A C68U,< 1e-05
16,C10G A42G A48C,< 1e-05
17,C10A G40U U47G U49C U55A,< 1e-05
18,C10U G43A C50U G51C,< 1e-05
19,C10U G32U G41C U55G,< 1e-05
20,G7C G51U G59A,< 1e-05
21,C11A A33C A36G U46G G51A G62A,< 1e-05
22,C8G A42G A52U,< 1e-05
23,C8A A53U C71U,< 1e-05
24,G7U G35U G44U,< 1e-05
25,G9U A12C A33G A53U,< 1e-05
26,G7A U45A U49G,< 1e-05
27,C8U A36C G51U C68A,< 1e-05

row,Variant,self-cleavage kobs at 2500 uM GlcN6P [s⁻¹]
1,C8A G40U A53G,< 1e-05
2,G7C G51U G66A C67U C68U,< 1e-05
3,C8G A33C U56C G63U,< 1e-05
4,C11U A14G G43A,< 1e-05
5,C10U G60C G63U,< 1e-05
6,G7C C34A U57C G63C,< 1e-05
7,G9U G59U C70U,< 1e-05
8,G9A G13C C34A G40C C50U C71G,< 1e-05
9,G9A G43C U45G U65C,< 1e-05
10,C11U G13C G62A C71U,< 1e-05
11,A12C A36G G40U G43U U54G,< 1e-05
12,C10G A42U G62C,< 1e-05
13,G7C A42G U69G,< 1e-05
14,G9A G40U G62U A64U,< 1e-05
15,C11A U30G A53U,0.00017 ± 4.1e-05
16,C10U U30A U46G,< 1e-05
17,C11G G29C A36G U69G,0.001 ± 0.00046
18,G7U G62C G63C U69C,< 1e-05
19,C8G A12U U31A G51C,< 1e-05
20,A12C A15C A39G A64G C70U,< 1e-05
21,C8A U30C G62A,< 1e-05
22,C11U C34U G40C,< 1e-05
23,G9C G66C,< 1e-05
24,C8U A36C U45G A53G G60C C67A,< 1e-05
25,C10U A12U A53U,4.13e-05 ± 1.7e-05
26,C11G C34A G37U,< 1e-05

# Variants of: B1
# Experiment: self-cleavage kobs at 10000 uM GlcN6P; higher = faster cleavage; RNA array
# Details: with glucosamine-6-phosphate
# How it was run: as §1
row,Variant,self-cleavage kobs at 10000 uM GlcN6P [s⁻¹]
1,C11A A33C A53C A64C,< 1e-05
2,C11U G29A C70A,5.6e-05 ± 1.8e-05
3,G7C A15C G32U C58U C61U,< 1e-05
4,C8U A48U G60C,< 1e-05
5,C11A U30G G43C C68G C71U,0.000118 ± 3e-05
6,C8U A36C G51U C68A,< 1e-05
7,G9A G43C U45G U65C,< 1e-05
